In paper PMC5024086, “Fine-tuning of amino sugar homeostasis by EIIA^Ntr in Salmonella Typhimurium” (Scientific Reports, 2016):

B1: GlmS in solution (SEC-MALS) (enzyme, Salmonella Typhimurium, UniProt Q8ZKX1 1-609, looked up)
chain: MCGIVGAIAQRDVAEILLEGLRRLEYRGYDSAGLAVVDAEGHMTRLRRLGKVQMLAQAAEEHPLHGGTGIAHTRWATHGEPSEANAHPHVSEHIVVVHNGIIENHEPLREALKARGYTFVSETDTEVIAHLVNWELKQGGTLREAVLRAIPQLRGAYGTVIMDTRHPDTLLAARSGSPLVIGLGMGENFIASDQLALLPVTRRFIFLEEGDIAEITRRSVNIFDNTGAEVKRQDIESNLQYDAGDKGIYRHYMQKEIYEQPNAIKNTLTGRISHGQVDLSELGPNADELLSKVEHIQILACGTSYNSGMVSRYWFESLAGIPCDVEIASEFRYRKSAVRRNSLMITLSQSGETADTLAGLRLSKELGYLGSLAICNVPGSSLVRESDLALMTNAGTEIGVASTKAFTTQLTVLLMLVAKLSRLKGLDASIEHDIVHGLQALPSRIEQMLSQDKRIELLAEDFSDKHHALFLGRGDQYPIALEGALKLKEISYIHAEAYAAGELKHGPLALIDADMPVIVVAPNNELLEKLKSNIEEVRARGGQLYVFADQDAGFVSNDNMHIIEMPHVEEVIAPIFYTVPLQLLAYHVALIKGTDVDQPRNLAKSVTVE
notes: D-glucosamine-6-phosphate synthase (GlmS), Salmonella Typhimurium; 128 kDa dimer by SEC-MALS; it may be the same as m7; also called GlmS dimer

Columns and labels:
[1] = target: GlmS in solution (SEC-MALS) (Salmonella Typhimurium) (UniProt Q8ZKX1); assay: SEC-MALS; Superdex 200 10/300 GL, 20 mM Tris-HCl pH 8.0, 300 mM NaCl, 2 mg protein injected, 0.5 ml/min; proteins alone or in combination
[2] = target: the molecule itself; assay: as above

Molecule | stoichiometry N (EIIA^Ntr per GlmS chain (1:2)) [1] | stoichiometry N [2]
EIIA^Ntr in solution (SEC-MALS) (natural protein) | 0.5 | 
B1 |  | 2
